The values that follow come from the supplement of paper PMC10598134.

The data set can be described thus: collision cross section of modified peptide (TIMS, N2, iRT-aligned); higher = larger / more extended gas-phase ion. The procedure, abridged:
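On a timsTOF Pro/HT (dda-PASEF, nitrogen, ~2.4 mbar), synthetic peptide pools were analysed after a 120-min nanoflow C18 separation at 60 °C and identified in MaxQuant. Three reference ions served for 1/K0 calibration, with run-wise alignment to the median iRT peptide deviation. Collision cross section comes from the Mason-Schamp equation, using the most abundant feature per charge state averaged over 1–3 technical replicates.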

Where [1] appears, read: charge state: 2, modification: Methyl (K).
Setting [2] is: charge state: 3, modification: Methyl (K).
The mark [3] stands for this setting: charge state: 2, modification: Propionyl.
Setting [4] is: charge state: 2, modification: Succinyl.
Setting [5] is: charge state: 3, modification: Succinyl.
[6] abbreviates: charge state: 2, modification: Trimethyl (K).
Setting [7] is: charge state: 3, modification: Trimethyl (K).
Where [8] appears, read: charge state: 2, modification: hydroxyisobutyryl.
Setting [9] is: charge state: 3, modification: hydroxyisobutyryl.
Setting [10] is: charge state: 2, modification: Nitro (Y).
Setting [11] is: charge state: 2, modification: Acetyl (K).
Where [12] appears, read: charge state: 3, modification: Acetyl (K).
Where [13] appears, read: charge state: 2, modification: Biotin.
Where [14] appears, read: charge state: 3, modification: Biotin.
Setting [15] is: charge state: 2, modification: Butyryl.
Where [16] appears, read: charge state: 3, modification: Butyryl.
Where [17] appears, read: charge state: 2, modification: Crotonyl.
Setting [18] is: charge state: 3, modification: Crotonyl.
Setting [19] is: charge state: 2, modification: Dimethyl (K).
Where [20] appears, read: charge state: 3, modification: Dimethyl (K).
The mark [21] stands for this setting: charge state: 2, modification: Formyl.
[22] abbreviates: charge state: 2, modification: Glutarylation.
The mark [23] stands for this setting: charge state: 3, modification: Glutarylation.
Setting [24] is: charge state: 2, modification: GlyGly (K).
The mark [25] stands for this setting: charge state: 3, modification: GlyGly (K).
[26] abbreviates: charge state: 2, modification: Malonyl.

± gives the standard deviation.

On to “LLIVSTTPYSEKDTK [_LLIVSTTPYSEK(Methyl (K))DTK_]”, for which the collision cross section is, setting by setting: under setting [1], 465.27 ± 2.3 Å²; under setting [2], 508.6 ± 2 Å².

“LLIVSTTPYSEKDTK [_LLIVSTTPYSEK(Propionyl)DTK_]” returned a collision cross section under setting [3] of 452.01 Å². On to “LLIVSTTPYSEKDTK [_LLIVSTTPYSEK(Succinyl)DTK_]”, for which the collision cross section under setting [4] was found to be 458.63 ± 1.1 Å² and the collision cross section under setting [5] worked out at 480.04 ± 2.5 Å². Consider “LLIVSTTPYSEKDTK [_LLIVSTTPYSEK(Trimethyl (K))DTK_]”, for which the collision cross section stood at 468.15 ± 1.2 Å² under setting [6] and 501.69 ± 1.8 Å² under setting [7].

On to “LLIVSTTPYSEKDTK [_LLIVSTTPYSEK(hydroxyisobutyryl)DTK_]”, for which the collision cross section reads like this: under setting [8], 461.48 ± 0.76 Å²; under setting [9], 486.54 ± 2.8 Å². Turning to “LLRGVGGSHGR [_LLR(Citrullination (R))GVGGSHGR_]”, the collision cross section was determined as 372.77 ± 0.65 Å² (charge state: 2, modification: Citrullination (R)) and 442.38 ± 1.8 Å² (charge state: 3, modification: Citrullination (R)). In the case of LLRGVGGSHGR [_LLR(Methyl (R))GVGGSHGR_], the collision cross section runs as follows: (charge state: 2, modification: Methyl (R)) 374.24 Å²; (charge state: 3, modification: Methyl (R)) 456.7 ± 11 Å².

Sequence LNAIYQNNLTK [_LNAIY(Nitro (Y))QNNLTK_] showed a collision cross section under setting [10] of 384.56 ± 0.55 Å².

“LNAIYQNNLTK [_LNAIY(Phospho (Y))QNNLTK_]” registered a collision cross section (charge state: 2, modification: Phospho (Y)) of 390.25 ± 0.67 Å². Under setting [10], “LPEYPQVDDLLLR [_LPEY(Nitro (Y))PQVDDLLLR_]” showed a collision cross section of 424.61 ± 1.1 Å². Consider “LPTTAASTPDAVDK [_LPT(HexNAc (ST))TAASTPDAVDK_]”, for which the collision cross section (charge state: 2, modification: HexNAc (ST)) was 413.95 ± 0.62 Å². Take “LQAAYAGDKADDIQK [_LQAAYAGDK(Acetyl (K))ADDIQK_]”: the collision cross section is on record as 429.91 ± 2.1 Å² under setting [11] and 488.96 ± 0.48 Å² under setting [12].

In turn, “LQAAYAGDKADDIQK [_LQAAYAGDK(Biotin)ADDIQK_]” gave a collision cross section under setting [13] of 449.09 ± 0.62 Å² and a collision cross section under setting [14] of 511.95 ± 0.34 Å².

“LQAAYAGDKADDIQK [_LQAAYAGDK(Butyryl)ADDIQK_]”: the collision cross section by setting is: under setting [15], 436.77 ± 0.53 Å²; under setting [16], 489.7 ± 2.9 Å². As to “LQAAYAGDKADDIQK [_LQAAYAGDK(Crotonyl)ADDIQK_]”, the collision cross section is listed as 436.53 ± 0.29 Å² under setting [17] and 487.02 ± 2.8 Å² under setting [18]. As to “LQAAYAGDKADDIQK [_LQAAYAGDK(Dimethyl (K))ADDIQK_]”, the collision cross section by setting is: under setting [19], 436.04 ± 1.1 Å²; under setting [20], 470.88 ± 1.6 Å². “LQAAYAGDKADDIQK [_LQAAYAGDK(Formyl)ADDIQK_]” showed a collision cross section under setting [21] of 428.24 ± 0.79 Å². “LQAAYAGDKADDIQK [_LQAAYAGDK(Gluratylation)ADDIQK_]” came in with a collision cross section under setting [22] of 440.38 ± 0.95 Å² and a collision cross section under setting [23] of 496.91 ± 1 Å². “LQAAYAGDKADDIQK [_LQAAYAGDK(GlyGly (K))ADDIQK_]”: the collision cross section runs as follows: under setting [24], 455.93 ± 1.6 Å²; under setting [25], 505.34 ± 0.35 Å². On to “LQAAYAGDKADDIQK [_LQAAYAGDK(Malonyl)ADDIQK_]”, for which the collision cross section under setting [26] is on record as 436.07 ± 1.2 Å². “LQAAYAGDKADDIQK [_LQAAYAGDK(Methyl (K))ADDIQK_]”: the collision cross section is on record as 430.05 ± 1.4 Å² under setting [1] and 477.97 ± 2.6 Å² under setting [2]. Under setting [3], “LQAAYAGDKADDIQK [_LQAAYAGDK(Propionyl)ADDIQK_]” registered a collision cross section of 432.96 ± 1.1 Å².

“LQAAYAGDKADDIQK [_LQAAYAGDK(Succinyl)ADDIQK_]”: the collision cross section is, setting by setting: under setting [4], 436.68 ± 1.4 Å²; under setting [5], 489.74 ± 2.1 Å². Turning to “LQAAYAGDKADDIQK [_LQAAYAGDK(Trimethyl (K))ADDIQK_]”, the collision cross section is, setting by setting: under setting [6], 440.52 ± 0.59 Å²; under setting [7], 477.2 ± 1.8 Å². Consider “LQAAYAGDKADDIQK [_LQAAYAGDK(hydroxyisobutyryl)ADDIQK_]”, for which the collision cross section under setting [8] came to 440.97 ± 0.91 Å². Turning to “LQDVSGQLSSSKK [_LQDVSGQLSSSK(Acetyl (K))K_]”, the collision cross section by setting is: under setting [11], 396.87 ± 1.3 Å²; under setting [12], 461.64 ± 3.7 Å².

Consider LQDVSGQLSSSKK [_LQDVSGQLSSSK(Biotin)K_], for which the collision cross section was 425.22 ± 2.6 Å² under setting [13] and 506.69 Å² under setting [14]. In the case of “LQDVSGQLSSSKK [_LQDVSGQLSSSK(Butyryl)K_]”, the collision cross section is, setting by setting: under setting [15], 401.39 ± 0.74 Å²; under setting [16], 476.47 ± 3.2 Å². For “LQDVSGQLSSSKK [_LQDVSGQLSSSK(Crotonyl)K_]”, the collision cross section reads like this: under setting [17], 402.23 ± 0.9 Å²; under setting [18], 469.03 ± 3.7 Å².

For the sequence “LQDVSGQLSSSKK [_LQDVSGQLSSSK(Dimethyl (K))K_]”, the collision cross section reads like this: under setting [19], 407.51 ± 1.1 Å²; under setting [20], 466.01 ± 2.4 Å².

LQDVSGQLSSSKK [_LQDVSGQLSSSK(Formyl)K_] returned a collision cross section under setting [21] of 394.61 ± 0.21 Å². In the case of “LQDVSGQLSSSKK [_LQDVSGQLSSSK(Gluratylation)K_]”, the collision cross section reads like this: under setting [22], 404.29 ± 0.99 Å²; under setting [23], 482.96 ± 1.3 Å². The sequence “LQDVSGQLSSSKK [_LQDVSGQLSSSK(GlyGly (K))K_]” registered a collision cross section under setting [24] of 438.61 ± 1.4 Å² and a collision cross section under setting [25] of 490.05 ± 4.9 Å². In the case of “LQDVSGQLSSSKK [_LQDVSGQLSSSK(Malonyl)K_]”, the collision cross section under setting [26] is 397.79 ± 0.61 Å².

As to “LQDVSGQLSSSKK [_LQDVSGQLSSSK(Methyl (K))K_]”, the collision cross section stood at 404.82 ± 1.9 Å² under setting [1] and 465.49 ± 8.7 Å² under setting [2]. With “LQDVSGQLSSSKK [_LQDVSGQLSSSK(Propionyl)K_]”, the collision cross section was 399.52 ± 0.65 Å² under setting [3] and 471.63 Å² (charge state: 3, modification: Propionyl).

Turning to “LQDVSGQLSSSKK [_LQDVSGQLSSSK(Succinyl)K_]”, the collision cross section runs as follows: under setting [4], 402.37 ± 0.79 Å²; under setting [5], 468.7 ± 14 Å².

On to “LQDVSGQLSSSKK [_LQDVSGQLSSSK(Trimethyl (K))K_]”, for which the collision cross section is on record as 417.06 ± 1.1 Å² under setting [6] and 475.09 ± 1.5 Å² under setting [7].

For “LQDVSGQLSSSKK [_LQDVSGQLSSSK(hydroxyisobutyryl)K_]”, the collision cross section is 404.16 ± 0.3 Å² under setting [8] and 470.99 ± 5.5 Å² under setting [9]. With “LQEKVESAQSEQK [_LQEK(Acetyl (K))VESAQSEQK_]”, the collision cross section reads like this: under setting [11], 412.85 ± 1.8 Å²; under setting [12], 502.13 ± 0.084 Å². Turning to LQEKVESAQSEQK [_LQEK(Biotin)VESAQSEQK_], the collision cross section by setting is: under setting [13], 433.03 ± 0.23 Å²; under setting [14], 526.98 ± 0.34 Å². Turning to “LQEKVESAQSEQK [_LQEK(Butyryl)VESAQSEQK_]”, the collision cross section is, setting by setting: under setting [15], 419.43 ± 0.77 Å²; under setting [16], 504.21 ± 1.9 Å². “LQEKVESAQSEQK [_LQEK(Crotonyl)VESAQSEQK_]” came in with a collision cross section under setting [17] of 419.55 ± 0.85 Å² and a collision cross section under setting [18] of 502.91 ± 1.6 Å².

On to “LQEKVESAQSEQK [_LQEK(Dimethyl (K))VESAQSEQK_]”, for which the collision cross section reads like this: under setting [19], 412.95 ± 1.6 Å²; under setting [20], 455.71 ± 2.1 Å².
